Results as given in patent US20230374147A1 (HUMMINGBIRD BIOSCIENCE PTE, published 2023).

Key:
[1] = biological target: T1, His-tagged human BCMA (Acro Biosystems, Cat. #BCA-H522y) (human, UniProt Q02223 1-54); test: ELISA, hybridoma supernatant, coated His-tagged antigen; further: test concentration or dose not given here
T1 construct: also called huBCMA; P1; not shown: His tag
T1 sequence: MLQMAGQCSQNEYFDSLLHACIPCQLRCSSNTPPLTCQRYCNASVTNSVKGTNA

[2] = biological target: T2, His-tagged cynomolgous macaque BCMA (Acro Biosystems, BCA-C52H7) (cynomolgus macaque, UniProt Q02223 1-54 (human entry)); test: as above
T2 construct: Bought protein; also called cyno BCMA; CyBCMA; not shown: His tag

[3] = biological target: T3, His-tagged mouse BCMA (Acro Biosystems, BCA-M52H3) (mouse, UniProt O88472 1-49); test: as above
T3 construct: Bought protein; not shown: His tag
T3 chain: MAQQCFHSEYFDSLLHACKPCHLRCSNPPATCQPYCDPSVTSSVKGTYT

[4] = biological target: T4, human BCMA expressed on cells (human, UniProt Q02223 1-184); test: flow cytometry, hybridoma supernatant, HEK293T cells stably expressing human BCMA
T4 construct: the cell line is named under assay; also called wildtype human BCMA
T4 sequence: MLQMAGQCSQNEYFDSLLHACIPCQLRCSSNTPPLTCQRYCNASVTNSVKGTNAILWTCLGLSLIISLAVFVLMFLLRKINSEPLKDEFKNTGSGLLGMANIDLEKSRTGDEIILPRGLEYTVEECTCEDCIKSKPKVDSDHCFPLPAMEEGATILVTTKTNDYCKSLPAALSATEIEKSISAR

[5] = biological target: T1, His-tagged human BCMA (Acro Biosystems, …); test: ELISA, IgG purified from hybridoma supernatant, coated His-tagged antigen
[6] = biological target: T3, His-tagged mouse BCMA (Acro Biosystems, …); test: as above
[7] = biological target: T1, His-tagged human BCMA (Acro Biosystems, …); test: BLI (Gator), antibody loaded on HFC biosensor, His-tagged antigen as analyte
[8] = biological target: T2, His-tagged cynomolgous macaque BCMA …; test: as above
[9] = biological target: T5, recombinant his-tagged human TACI (Sinobiological cat #11937-H08H) (human, UniProt O14836 1-165); test: as above
T5 construct: Bought protein; also called Human TACI-His; huTACI; not shown: His tag
T5 sequence: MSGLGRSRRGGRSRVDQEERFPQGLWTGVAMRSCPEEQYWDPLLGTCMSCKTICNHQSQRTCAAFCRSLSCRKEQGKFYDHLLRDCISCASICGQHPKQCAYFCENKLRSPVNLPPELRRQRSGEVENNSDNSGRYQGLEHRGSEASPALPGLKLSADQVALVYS

[10] = biological target: T1, His-tagged human BCMA (Acro Biosystems, …); test: BLI, His-tagged human BCMA on HIS1K tip
[11] = biological target: T6, cynomolgous macaque BCMA expressed on CHOK1 cells; test: flow cytometry, CHOK1 cells transiently expressing cynomolgus BCMA
T6 construct: also called cyno BCMA on cells

[12] = biological target: T2, His-tagged cynomolgous macaque BCMA …; test: ELISA, coated His-tagged cynomolgus BCMA
[13] = biological target: T5, recombinant his-tagged human TACI …; test: ELISA, coated His-tagged human TACI
[14] = biological target: T1, His-tagged human BCMA (Acro Biosystems, …); test: BLI, His-tagged human BCMA on HIS1K tip, no APRIL; R2 0.9901
[15] = biological target: T1, His-tagged human BCMA (Acro Biosystems, …); test: BLI, His-tagged human BCMA on HIS1K tip; R2 0.9973
[16] = biological target: T2, His-tagged cynomolgous macaque BCMA …; test: BLI, His-tagged cynomolgus BCMA on HIS1K tip; R2 0.9625
[17] = biological target: T4, human BCMA expressed on cells; test: flow cytometry, HEK293 cells stably expressing human BCMA
[18] = biological target: T2, His-tagged cynomolgous macaque BCMA …; test: BLI, His-tagged cynomolgus BCMA on HIS1K tip
[19] = biological target: T4, human BCMA expressed on cells; test: flow cytometry, H929 cells (BCMA-expressing)
[20] = biological target: T3, His-tagged mouse BCMA (Acro Biosystems, …); test: BLI, His-tagged mouse BCMA on HIS1K tip
[21] = biological target: T3, His-tagged mouse BCMA (Acro Biosystems, …); test: BLI, His-tagged mouse BCMA on HIS1K tip; R2 0.9322
[22] = biological target: T2, His-tagged cynomolgous macaque BCMA …; test: BLI, His-tagged cynomolgus BCMA on HIS1K tip; R2 0.9501
[23] = biological target: T1, His-tagged human BCMA (Acro Biosystems, …); test: BLI, His-tagged human BCMA on HIS1K tip; R2 0.9901

B1: 539-SP7-F4 (antibody produced by the hybridoma) (antibody, V domains shown)
VH: EVQLQQSGPELVKPGASMKISCKASGYSFTGYIMNWVKQSHGKNLEWIGLINPYNGDSIYNQKFKGKATLTVDKSSSTAYMELFSLTSEDSTVYYCAAGEEFAYWGQGTLVTVSA
VL: DIQMTQTSSSLSASLGDRVTISCRASQDISIYLNWFQQKPDGTVKLLIYFTSRLHPGVPSRFSASGSGTDYSLTISHLEHEDIATYFCQQGNTLPRTFGGGTKVELK
notes: Mouse antibody from B cell hybridoma (culture supernatant or IgG purified from it)
ELISA values (OD 450 nm) [1]: 0.893 OD | ELISA values (OD 450 nm) [2]: 2.35 OD | ELISA values (OD 450 nm) [3]: 0.318 OD | % Parent (percent positive cells) [4]: 63.8% | EC50 [5]: 0.0182 mg/L | EC50 [6]: 14.6 mg/L

B2: 1C8-25 hIgG1 (antibody, V domains shown)
VH: QVQLVQSGAEVKKPGASVKVSCKASGYTFTNYVMHWVRQAPGQRLEWMGYILPYNDGTKYSQKFQGRVTITRDTSASTAYMELSSLRSEDTAVYYCARYDWEGSFDYWGQGTTVTVSS
VL: DIQMTQSPSSLSASVGDRVTITCRASQDIGNYLNWYQQKPGKAVKLLMRYTSRLHSGVPSRFSGSGSGTDFTLTISSLQPEDFATYYCQQGFTFPPTFGGGTKLEIKR
notes: also called [95]
binding result [7]: binds | binding result [8]: binds | binding result [9]: binds

B3: 1C8-27 hIgG1 (antibody, V domains shown)
VH: QVQLVQSGAEVKKPGASVKVSCKASGYTFTNYVMHWVRQAPGQRLEWMGYILPYNDGTKYSQKFQGRVTITRDTSASTAYMELSSLRSEDTAVYYCARYDWEGSFDYWGQGTTVTVSS
VL: DIQMTQSPSSLSASVGDRVTITCAASQDISNYLNWYQQKPGKAVKLLMRYTSRLHSGVPSRFSGSGSGTDFTLTISSLQPEDFATYYCQQGNRFPPTFGGGTKLEIKR
notes: also called [96]
binding result [7]: binds | binding result [8]: binds | binding result [9]: binds

B4: 539-SP1-C8 (antibody produced by the hybridoma) (antibody, V domains shown)
VH: EVQLQQSGPELVKPGSSVKMSCKASGYTFTNYVMHWVKQKPGQGLEWIGYILPYNDGTKYNEKFKGKATLTSDKSSSTAYMEFSVLTSEDSAVYYCARYDYEGSFDYWGQGTALTVSS
VL: DIQMTQTTSSLSASLGDRVTISCRASQDISNYLNWYQQKPDGTVKLLMCYTSRLHSGVPSRFSGSGSGTDFSLTISNLEQEDIATYFCQQGNTFPPTFGGGTKLEIK
notes: as for B1
ELISA values (OD 450 nm) [1]: 0.686 OD | ELISA values (OD 450 nm) [2]: 2.04 OD | ELISA values (OD 450 nm) [3]: 0.339 OD | % Parent (percent positive cells) [4]: 56.5% | EC50 [5]: 0.0299 mg/L | EC50 [6]: 9.19 mg/L

B5: 538-SP5-B10 (antibody produced by the hybridoma) (antibody, V domains shown)
VH: EVQLQQSGPELVKPGASVKMSCKASGYTFTSYVMHWVKQKPGRGLEWIAYILPFNDVTKYNEKFKGKATLTSDKSSNTAYMELSSLTSEDSAVYYCARWEWDDGYFDYWGQGTTLTVSS
VL: DAVMTQTPLSLPVSLGDQASISCRSSQSLENSNGNTYLNWYLQKPGQSPQLLIYRVSNRFSGVLDRFSGSGSGTDFTLKISRVEAEDLGVYFCLQVSHVPFTFGAGTKLELK
notes: as for B1
ELISA values (OD 450 nm) [1]: 0.812 OD | ELISA values (OD 450 nm) [2]: 2.44 OD | ELISA values (OD 450 nm) [3]: 0.247 OD | % Parent (percent positive cells) [4]: 70.8% | EC50 [5]: 0.0358 mg/L | EC50 [6]: 21 mg/L

B6: 552-LN2-F8 hIgG1 (antibody, V domains shown)
VH: QIQLVQSGPELKKPGETVKISCKASGYTFTDYTMYWVKQAPGKGLKWMGWINTETGEPTYADDFKGRFVFSLETSANTAYLQINNLKNEDTATYFCAISYYYGMDYWGQGTSVTVTS
VL: DIILTQSPASLAVSLGQRATITCRASKSVSTSGYNFVYWYQQKPGQPPKLLIYLASNLESGVPARFSGSGSGTDFTLNIHPVEEEDAATYYCQHSRELPRTFGGGTKLEIKR
notes: Human-mouse chimeric antibody, human IgG1 format; also called [9]
Human BCMA response [10]: 2.31 | binding result [11]: binds | EC50 (read off the curve) [12]: ~0.08 mg/L | binding result [13]: no binding (tested: 10 ug/ml) | Kd [14]: < 0.001 nM | Kd [15]: < 0.001 nM | Kd [16]: 59.8 nM | EC50 (read off the curve) [17]: ~0.5 mg/L | Cyno BCMA response [18]: 1.58 | EC50 (read off the curve) [19]: ~0.1 mg/L

B7: 539-SP5-D7 hIgG1 (antibody, V domains shown)
VH: EVMLVDSGGNLVKPGGSLKLSCAASGFTFSNYVISWVRQTPEKRLEWVATISTVGTNTYYPDSVRGRFTISRDNAENTLYLQMSSLRSEDTAIYYCSRHKYGYDDPSYAMDYWGQGTSVTVSS
VL: QLVLTQSSSASFSLGASAKLTCTLSSQHSTYTIEWYQQQPLKPPKYVMELKKDGSHSTGDGIPDRFSGSSSGADRYLSISNIQAEDEAIYICGVGDTVKEQFVYVFGGGTKVTVLG
notes: Human-mouse chimeric antibody, human IgG1 format, lambda light chain; also called [4]
Human BCMA response [10]: 2.14 | binding result [11]: binds | Kd [14]: < 0.001 nM | Mouse BCMA response [20]: 1.01 | Kd [21]: 4.86 nM | Cyno BCMA response [18]: 0.265 | Kd [22]: 167 nM | Kd [23]: < 0.001 nM | EC50 (read off the curve) [19]: ~0.3 mg/L
